Results on 1 molecule are retold here after patent publication US20220064329A1 (Novo Nordisk, published 2022).

In this experiment the target is T1, murine FVII(a) (mouse, UniProt P70375 42-446).
T1 sequence (looked up): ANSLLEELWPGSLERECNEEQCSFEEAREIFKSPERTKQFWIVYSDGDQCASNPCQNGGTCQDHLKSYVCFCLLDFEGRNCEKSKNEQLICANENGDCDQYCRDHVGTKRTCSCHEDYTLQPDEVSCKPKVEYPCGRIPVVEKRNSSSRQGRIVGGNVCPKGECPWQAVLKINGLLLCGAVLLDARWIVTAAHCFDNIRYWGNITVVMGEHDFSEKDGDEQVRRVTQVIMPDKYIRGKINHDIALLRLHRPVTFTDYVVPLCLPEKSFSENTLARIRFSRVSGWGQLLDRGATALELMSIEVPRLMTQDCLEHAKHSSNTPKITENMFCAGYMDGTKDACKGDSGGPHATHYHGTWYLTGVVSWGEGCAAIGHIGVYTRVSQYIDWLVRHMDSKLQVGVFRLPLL
Nature of the experiment: not told; stated as the reason for co-administering human FVII(a) in the mouse model.

B1: biAb0001 (bispecific antibody, human IgG4 S228P, kappa)
heavy 1: QVQLQESGPGLVKPSQTLSLTCTVSGYSISSDSAWSWIRQPPGKGLEWIGYIQYSGSTNYNPSLKSRVTISRDTSKNQFSLKLSSVTAADTAVYYCARSVNYYGNSFAVGYWGQGTLVTVSSASTKGPSVFPLAPCSRSTSESTAALGCLVKDYFPEPVTVSWNSGALTSGVHTFPAVLQSSGLYSLSSVVTVPSSSLGTKTYTCNVDHKPSNTKVDKRVESKYGPPCPPCPAPEFLGGPSVFLFPPKPKDTLMISRTPEVTCVVVDVSQEDPEVQFNWYVDGVEVHNAKTKPREEQFNSTYRVVSVLTVLHQDWLNGKEYKCKVSNKGLPSSIEKTISKAKGQPREPQVYTLPPSQEEMTKNQVSLTCLVKGFYPSDIAVEWESNGQPENNYKTTPPVLDSDGSFLLYSKLTVDKSRWQEGNVFSCSVMHEALHNHYTQKSLSLSLGK
light 1: EIVLTQSPATLSLSPGERATLSCRASQGISDYLHWYQQKPGEAPRLLIKYTSQPATGIPARFSGSGSGTDFTLTISSLEPEDFAVYYCQNGHSFPLTFGQGTKLEIKRTVAAPSVFIFPPSDEQLKSGTASVVCLLNNFYPREAKVQWKVDNALQSGNSQESVTEQDSKDSTYSLSSTLTLSKADYEKHKVYACEVTHQGLSSPVTKSFNRGEC
heavy 2: not shown
light 2: DIVMTQTPLSSPVTLGQPASISCRSSQSLVHRQGNTYFHWLQQRPGQPPRLLIYKVSNRFSGVPDRFSGSGAGTDFTLKISRVEAEDVGVYYCSQSTHVPYTFGQGTKLEIKRTVAAPSVFIFPPSDEQLKSGTASVVCLLNNFYPREAKVQWKVDNALQSGNSQESVTEQDSKDSTYSLSSTLTLSKADYEKHKVYACEVTHQGLSSPVTKSFNRGEC
notes: also called anti-FVII(a)/anti-TLT-1 bispecific antibody; mAb0865 x mAb1076
As to B1, the binding result is reported as “no binding”.
